Measured values published in patent US20100047228.

Target: delta-plasminogen
Sequence (chain, as listed by the source mutant): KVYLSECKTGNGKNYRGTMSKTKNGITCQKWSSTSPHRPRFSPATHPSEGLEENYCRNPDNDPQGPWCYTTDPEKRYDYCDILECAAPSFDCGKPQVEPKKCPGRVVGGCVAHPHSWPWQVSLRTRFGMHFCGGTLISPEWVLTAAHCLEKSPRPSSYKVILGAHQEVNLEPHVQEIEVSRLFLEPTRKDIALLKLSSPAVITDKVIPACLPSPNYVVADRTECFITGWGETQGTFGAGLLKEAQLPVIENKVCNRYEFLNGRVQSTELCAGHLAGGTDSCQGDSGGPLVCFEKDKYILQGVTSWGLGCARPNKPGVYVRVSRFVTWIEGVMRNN

B1: tissue Plasminogen Activator (protein)
chain: SYQVICRDEKTQMIYQQHQSWLRPVLRSNRVEYCWCNSGRAQCHSVPVKSCSEPRCFNGGTCQQALYFSDFVCQCPEGFAGKCCEIDTRATCYEDQGISYRGTWSTAESGAECTNWNSSALAQKPYSGRRPDAIRLGLGNHNYCRNPDRDSKPWCYVFKAGKYSSEFCSTPACSEGNSDCYFGNGSAYRGTHSLTESGASCLPWNSMILIGKVYTAQNPSAQALGLGKHNYCRNPDGDAKPWCHVLKNRRLTWEYCDVPSCSTCGLRQYSQPQFRIKGGLFADIASHPWQAAIFAKHRRSPGERFLCGGILISSCWILSAAHCFQERFPPHHLTVILGRTYRVVPGEEEQKFEVEKYIVHKEFDDDTYDNDIALLQLKSDSSRCAQESSVVRTVCLPPADLQLPDWTECELSGYGKHEALSPFYSERLKEAHVRLYPSSRCTSQHLLNRTVTDNMLCAGDTRSGGPQANLHDACQGDSGGPLVCLNDGRMTLVGIISWGLGCGQKDVPGVYTKVTNYLDWIRDNMRP
Question: B1 was tested. Which “conversion of one-chain delta-plasminogen into two-chain delta-plasmin (reduced SDS-PAGE)” value did it give?
Answer: Its value is “delta-plasminogen indeed can be activated by all three plasminogen activators”.
